According to publication PMC6375729:

What was measured:
BRD4 BD1, 44-168 = BRD4 BD1, 44-168 (UniProt O60885); assay: isothermal titration calorimetry; conditions: reference: H3 K9ac/K14ac peptide
BRD4 BD2, 334-460 = BRD4 BD2, 334-460 (UniProt O60885); assay: isothermal titration calorimetry; conditions: reference: H3 K9ac/K14ac peptide
[1] = target: BRD4 first bromodomain (BD1), N44-E168 (human) (UniProt O60885); assay: ITC; peptide in the syringe titrated into protein in the cell; 15 °C; 50 mM HEPES pH 7.5, 150 mM NaCl; single binding site model
[2] = target: BRD4 second bromodomain (BD2), D334-E460 (human) (UniProt O60885); assay: as above
[3] = target: BRD4 first bromodomain (BRD4/BD1) (human) (UniProt O60885); assay: ITC; peptide titrated into BRD4/BD1 or BRD4/BD2 in the cell; 50 mM HEPES pH 7.5 (at 25°C), 150 mM NaCl, 15°C, stirring at 1,000 rpm; single-site binding model
[4] = target: BRD4 second bromodomain (BRD4/BD2) (human) (UniProt O60885); assay: as above
[5] = target: BRD4 first bromodomain (BD1), N44-E168 (human) (UniProt O60885); assay: ITC; peptide titrated into protein; 100 mM Na3PO4 pH 8.0, 150 mM NaCl; single binding site model
[6] = target: BRD4 second bromodomain (BD2), D334-E460 (human) (UniProt O60885); assay: as above
[7] = target: BRD4 first bromodomain (BD1), N44-E168 (human) (UniProt O60885); assay: ITC; salt series: 15 °C, 300 mM NaCl; the sheet's heads give [Protein] 1055 uM and [Peptide] 45 uM
[8] = target: BRD4 first bromodomain (BD1), N44-E168 (human) (UniProt O60885); assay: ITC; salt series: 15 °C, 450 mM NaCl; the sheet's heads give [Protein] 1085 uM and [Peptide] 45 uM
[9] = target: BRD4 first bromodomain (BD1), N44-E168 (human) (UniProt O60885); assay: ITC; salt series: 15 °C, 1000 mM NaCl; the sheet's heads give [Protein] 1042 uM and [Peptide] 42 uM
[10] = target: BRD4 first bromodomain (BD1), N44-E168 (human) (UniProt O60885); assay: ITC; temperature series: 5 °C, 150 mM NaCl; the sheet's heads give [Protein] about […] and [Peptide] about 45 uM
[11] = target: BRD4 first bromodomain (BD1), N44-E168 (human) (UniProt O60885); assay: ITC; temperature series: 20 °C, 150 mM NaCl; [Protein] about 1050-1063 uM and [Peptide] 42-46 uM
[12] = target: BRD4 first bromodomain (BD1), N44-E168 (human) (UniProt O60885); assay: ITC; temperature series: 25 °C, 150 mM NaCl; [Protein] about 1050-1063 uM and [Peptide] 42-46 uM
[13] = target: BRD4 first bromodomain (BD1), N44-E168 (human) (UniProt O60885); assay: ITC; temperature series: 30 °C, 150 mM NaCl; [Protein] about 1050-1063 uM and [Peptide] 42-46 uM
[14] = target: BRD4 first bromodomain (BD1), N44-E168 (human) (UniProt O60885); assay: ITC; temperature and salt series: 15 °C, 150 mM NaCl; the sheet's heads give [Protein] about 1060 uM and [Peptide] 42-51 uM
[15] = target: BRD4 second bromodomain (BRD4/BD2) (human) (UniProt O60885); assay: ITC; peptide titrated into BRD4/BD1 or BRD4/BD2 in the cell; 100 mM Na3PO4 pH 8.0, 150 mM NaCl, 15°C, stirring at 1,000 rpm; single-site binding model
[16] = target: BRD4 first bromodomain (BRD4/BD1), hexa-His tag cleaved (human) (UniProt O60885); assay: ITC; peptide (1226 - 1433 μM) in the syringe, protein (36 - 59 μM) in the cell, 15°C, 50 mM HEPES pH 7.5, 150 mM NaCl, single binding site model

histone H3 (from UniProt P68431) H3 K9ac/pT11/K14ac peptide
binding against the reference (BRD4 BD1, 44-168; sites T11): lost | binding against the reference (BRD4 BD2, 334-460; sites T11): lost

ATRX K1030ac/K1033ac peptide
Kd [1]: 87.7 µM | stoichiometry N [1]: 0.99 | Kd [2]: 25.3 µM | stoichiometry N [2]: 0.49 | Kd [3]: 87.7 µM | Kd [4]: 25.3 µM

SRPK1 K585ac/K588ac peptide
stoichiometry N [5]: 0.92 | Kd [6]: 29.7 µM | stoichiometry N [6]: 1.11 | Kd [7]: 48.5 µM | stoichiometry N [7]: 1.02 | Kd [8]: 58.5 µM | stoichiometry N [8]: 1.01 | Kd [9]: 71.4 µM | stoichiometry N [9]: 0.96 | Kd [10]: 49 µM | stoichiometry N [10]: 1.01 | Kd [11]: 48.8 µM | stoichiometry N [11]: 1.14 | Kd [12]: 40.2 µM | stoichiometry N [12]: 1.12 | Kd [13]: 46.3 µM | stoichiometry N [13]: 1.12 | Kd [14]: 45.7 µM | stoichiometry N [14]: 1.16 | Kd [15]: 29.7 µM

E2F1 K117ac/K120ac peptide
Kd [1]: 45.8 µM | stoichiometry N [1]: 0.9 | Kd [2]: 34.8 µM | stoichiometry N [2]: 0.56 | Kd [3]: 45.8 µM | Kd [4]: 34.8 µM

histone H3 (from UniProt P68431) H3 K9ac/pS10/K14ac peptide
binding against the reference (BRD4 BD1, 44-168; sites S10): same | binding against the reference (BRD4 BD2, 334-460; sites S10): lost

SIRT7 K272ac/K275ac peptide
Kd [1]: 15.8 µM | stoichiometry N [1]: 0.52 | Kd [2]: 44.4 µM | stoichiometry N [2]: 0.87

GATA1 K312ac/K315ac peptide
Kd [1]: 24.6 µM | stoichiometry N [1]: 0.94 | Kd [2]: 62.9 µM | stoichiometry N [2]: 0.96 | Kd [3]: 24.6 µM | Kd [4]: 62.9 µM

SRPK1 (K585acY) peptide used for ITC
Kd [16]: 9.9 µM

TOP2A K1201ac/K1204ac peptide
Kd [1]: 19.5 µM | stoichiometry N [1]: 0.85 | Kd [2]: 63.3 µM | stoichiometry N [2]: 0.51 | Kd [3]: 19.5 µM | Kd [4]: 63.3 µM
